Positions count from the first letter of the chain named. Numbers in names are those of the source.

These results are taken from PMC10167226, “Short hydrophobic loop motifs in BRICHOS domains determine chaperone activity against amorphous protein aggregation but not against amyloid formation” (Communications Biology, 2023).

Data set [1] concerns the target T1, porcine heart citrate synthase (pig, UniProt P00889 28-464).
T1 construct: citrate synthase from porcine heart; Partly unfolded by incubation at 45 °C when it meets the chaperone; also called CS; source: bought: Sigma-Aldrich (porcine heart)
T1 sequence (looked up): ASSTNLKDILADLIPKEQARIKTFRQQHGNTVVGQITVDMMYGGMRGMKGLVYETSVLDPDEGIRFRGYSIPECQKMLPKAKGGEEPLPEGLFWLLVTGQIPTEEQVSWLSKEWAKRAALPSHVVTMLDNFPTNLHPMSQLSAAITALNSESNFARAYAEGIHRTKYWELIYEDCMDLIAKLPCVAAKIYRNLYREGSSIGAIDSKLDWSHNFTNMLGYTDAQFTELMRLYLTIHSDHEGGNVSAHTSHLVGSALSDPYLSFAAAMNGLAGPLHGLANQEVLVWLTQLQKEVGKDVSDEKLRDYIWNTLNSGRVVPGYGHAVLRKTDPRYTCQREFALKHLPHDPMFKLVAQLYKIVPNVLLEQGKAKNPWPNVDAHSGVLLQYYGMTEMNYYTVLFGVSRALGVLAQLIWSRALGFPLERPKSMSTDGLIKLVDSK
The data set can be described thus: SEC; 0.6 µmol/L CS incubated with 6 µmol/L rh Bri2 BRICHOS oligomers in 40 mmol/L HEPES/KOH pH 7.5 at 45 °C, then Superose 6 in 20 mmol/L NaPi pH 8.0, 0.2 mmol/L EDTA; fractions by SDS-PAGE (two bands) and native PAGE (one band); negative-stain EM of the complex. As to conditions: both partners purified. In general terms: In gel filtration, larger molecules generally elute earlier.

Data set [2] deals with the molecule itself. Briefly: SEC; analytical SEC of isolated oligomers, Superdex 200 increase, 10 µmol/L protein in 20 mmol/L NaPi, 0.2 mmol/L EDTA, pH 8.0; number of subunits estimated from the peak maximum and its full width at half maximum.

B1: recombinant human Bri2 BRICHOS domain, wild type (domain or fragment, UniProt Q9Y287 113-231, looked up)
chain: QTIEENIKIFEEEEVEFISVPVPEFADSDPANIVHDFNKKLTAYLDLNLDKCYVIPLNTSIVMPPRNLLELLINIKAGTYLPQSYLIHEHMVITDRIENIDHLGFFIYRLCHDKETYKL
notes: human Bri2, BRICHOS domain, residues 113 to 231; Also exists as monomers and dimers; the oligomer fraction was used with CS; also called wt Bri2 BRICHOS; rh Bri2 BRICHOS; source: recombinant, modified pET32 vector with His6-NT* tag; copies: about 18-30 (oligomers, estimated by SEC)
Regarding B1, in data set [1], the binding result is recorded as “binds”. Besides, in data set [2], the “stoichiometry N” value is 18 to 30 subunits.

B2: rh Bri2 BRICHOS T206W (domain or fragment, human, UniProt Q9Y287 113-231, looked up)
chain: B1 chain with T94W
notes: also called T206W mutant; source: recombinant, modified pET32 vector with His6-NT* tag
As to B2, the binding result in data set [2] is listed as “binds”.

As a reminder, the stoichiometry N is a count of units in the complex or per binding partner.
